Numbered stars: 1 amine (or outer) side, 2 acyl side, 3 side chain; on linkers, the order of the positions; unused ones are H or OH. Bridge positions count the residues as written; N and C are the ends. Square brackets hold non-standard residues; d marks the D form. Ends that are not written are not given here. (S)‑4‑Piperazine‑2‑carboxylic acid = (S)-4-piperazine-2-carboxylic acid; 4‑Aminomethylphenylacetic acid = O=C(Cc1ccc(CN[*:1])cc1)[*:2]; NHCH2(1,3-C6H4)CH2CO = O=C(Cc1cccc(CN[*:1])c1)[*:2]; Phe(3-COOH) = N[C@@H](Cc1cccc(C(=O)O)c1)C(=O)O; Oic = O=C(O)[C@@H]1C[C@@H]2CCCC[C@@H]2N1; PEG6 = NCCOCCOCCOCCOCCOCCOCCC(=O)O; tBuAla = CC(C)(C)C[C@H](N)C(=O)O; PEG4 = NCCOCCOCCOCCOCCC(=O)O; Pen = CC(C)(S)[C@H](N)C(=O)O; PEG3 = NCCOCCOCCOCCC(=O)O; Orn = NCCC[C@H](N)C(=O)O; Dap = NC[C@H](N)C(=O)O; dβPro = D-beta-Proline; Ahx = NCCCCCC(=O)O; Sar = CNCC(=O)O
T1: recombinant rat MASP1 active protease (amino acids 302-704, C-terminal His Tag) (rat, UniProt Q8CHN8 302-704)
T1 sequence: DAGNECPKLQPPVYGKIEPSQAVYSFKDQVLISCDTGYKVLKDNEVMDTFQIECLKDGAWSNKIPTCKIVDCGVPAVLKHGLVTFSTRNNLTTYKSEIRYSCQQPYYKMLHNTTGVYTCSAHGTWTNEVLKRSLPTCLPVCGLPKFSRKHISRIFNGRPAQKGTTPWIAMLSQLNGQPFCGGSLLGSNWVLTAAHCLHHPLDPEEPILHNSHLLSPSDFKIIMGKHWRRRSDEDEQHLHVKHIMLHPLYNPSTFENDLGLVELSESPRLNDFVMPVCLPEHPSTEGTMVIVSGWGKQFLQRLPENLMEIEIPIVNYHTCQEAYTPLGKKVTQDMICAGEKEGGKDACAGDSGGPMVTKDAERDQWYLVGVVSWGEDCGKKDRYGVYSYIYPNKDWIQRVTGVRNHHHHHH


What was measured:
[1] = target: T1, recombinant rat MASP1 active protease …; assay: cell-based or functional assay
[2] = target: recombinant rat MASP2 active protease (amino acids 296-685, C-terminal His Tag) (rat, UniProt Q9JJS8 296-685); assay: cell-based or functional assay
Chain of recombinant rat MASP2 active protease (amino acids 296-685, C-terminal His Tag) (Q9JJS8 other isoform, or with tags, fused parts or gaps limits assumed): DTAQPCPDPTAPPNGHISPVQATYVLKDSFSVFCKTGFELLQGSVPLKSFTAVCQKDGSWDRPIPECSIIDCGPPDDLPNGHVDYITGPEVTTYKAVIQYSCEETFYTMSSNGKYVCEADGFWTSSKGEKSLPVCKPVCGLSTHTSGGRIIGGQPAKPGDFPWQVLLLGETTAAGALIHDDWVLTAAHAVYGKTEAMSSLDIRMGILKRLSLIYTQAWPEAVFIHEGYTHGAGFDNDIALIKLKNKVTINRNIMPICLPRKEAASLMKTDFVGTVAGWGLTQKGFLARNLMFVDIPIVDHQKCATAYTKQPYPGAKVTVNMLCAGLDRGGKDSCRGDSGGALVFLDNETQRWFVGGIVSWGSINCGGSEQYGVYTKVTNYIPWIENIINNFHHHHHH

rat MASP1 IC50 [1] | rat MASP2 IC50 [2] | Binder
63 nM | 88 nM | [Sar]ICSRSLP[Oic]I[Pen]IPD[PEG3]-OH (disulfide 3-11; N-terminus assumed; SMILES CC[C@H](C)[C@H](NC(=O)CNC)C(=O)N[C@H]1CSSC(C)(C)[C@@H](C(=O)N[C@H](C(=O)N2CCC[C@H]2C(=O)N[C@@H](CC(=O)O)C(=O)NCCOCCOCCOCCC(=O)O)[C@@H](C)CC)NC(=O)[C@H]([C@@H](C)CC)NC(=O)[C@@H]2C[C@@H]3CCCC[C@@H]3N2C(=O)[C@@H]2CCCN2C(=O)[C@H](CC(C)C)NC(=O)[C@H](CO)NC(=O)[C@H](CCCNC(=N)N)NC(=O)[C@H](CO)NC1=O) [Example 484: ((N-Me)G)-IC+SRSLP-(Oic)-I-(Pen)+IPD-(PEG2(13 atoms))-OH]
170 nM | 70 nM | [Sar]ICSRSLP[Oic]I[Pen]IP[Dap]-OH (disulfide 3-11; also: Dap at position 14 joined through its 3-amino group) [Example 467: ((N-Me)G)-IC+SRSLP-(Oic)-I-(Pen)+IP-(*Dap)-OH]
78 nM | 71 nM | [Sar]ICSRSLP[Oic]I[Pen]IPD[PEG4‑CH2CO2H(15atoms)]-OH (disulfide 3-11) [Example 471: ((N-Me)G)-IC+SRSLP-(Oic)-I-(Pen)+IPD-(PEG4-CH2CO2H (15 atoms))-OH]
250 nM | 25 nM | [Piperidin‑4‑ylacetic acid]ICSRS[tBuAla]PPICIPD-OH (disulfide 3-11) [Example 475: (Piperidin-4-ylacetic acid)-IC+SRS-((tBu)A)-PPIC+IPD-OH]
34 nM | 50 nM | [Sar]ICSRSLP[Oic]I[Pen]IP[Phe(3-COOH)]-OH (disulfide 3-11; N-terminus assumed; SMILES CC[C@H](C)[C@H](NC(=O)CNC)C(=O)N[C@H]1CSSC(C)(C)[C@@H](C(=O)N[C@H](C(=O)N2CCC[C@H]2C(=O)N[C@@H](Cc2cccc(C(=O)O)c2)C(=O)O)[C@@H](C)CC)NC(=O)[C@H]([C@@H](C)CC)NC(=O)[C@@H]2C[C@@H]3CCCC[C@@H]3N2C(=O)[C@@H]2CCCN2C(=O)[C@H](CC(C)C)NC(=O)[C@H](CO)NC(=O)[C@H](CCCNC(=N)N)NC(=O)[C@H](CO)NC1=O) [Example 483: ((N-Me)G)-IC+SRSLP-(Oic)-I-(Pen)+IP-((3-Carboxy)F)-OH]
24 nM | 41 nM | XICSRS[tBuAla]PPI[Pen]IPD-OH (disulfide 3-11; not fully specified (residue 1); printed as (beta-P)-IC + SRS-((tBu)A)-PPI-(Pen) + IPD-OH) [Example 480: (beta-P)-IC+SRS-((tBu)A)-PPI-(Pen)+IPD-OH]
36 nM | 32 nM | [Sar]ICSRS[tBuAla]PPI[Pen]IP[PEG4]-OH (disulfide 3-11; N-terminus assumed; SMILES CC[C@H](C)[C@H](NC(=O)CNC)C(=O)N[C@H]1CSSC(C)(C)[C@@H](C(=O)N[C@H](C(=O)N2CCC[C@H]2C(=O)NCCOCCOCCOCCOCCC(=O)O)[C@@H](C)CC)NC(=O)[C@H]([C@@H](C)CC)NC(=O)[C@@H]2CCCN2C(=O)[C@@H]2CCCN2C(=O)[C@H](CC(C)(C)C)NC(=O)[C@H](CO)NC(=O)[C@H](CCCNC(=N)N)NC(=O)[C@H](CO)NC1=O) [Example 485: ((N-Me)G)-IC+SRS-((tBu)A)-PPI-(Pen)+IP-(PEG3(16atoms))-OH]
100 nM | 54 nM | [Sar]ICSRSLP[Oic]I[Pen]IP[PEG4‑CH2CO2H(15atoms)]-OH (disulfide 3-11) [Example 470: ((N-Me)G)-IC+SRSLP-(Oic)-I-(Pen)+IP-(PEG4-CH2CO2H (15 atoms))-OH]
72 nM | 140 nM | [Sar]ICSRSLP[Oic]I[Pen]IPD[Ahx]-OH (disulfide 3-11; N-terminus assumed; SMILES CC[C@H](C)[C@H](NC(=O)CNC)C(=O)N[C@H]1CSSC(C)(C)[C@@H](C(=O)N[C@H](C(=O)N2CCC[C@H]2C(=O)N[C@@H](CC(=O)O)C(=O)NCCCCCC(=O)O)[C@@H](C)CC)NC(=O)[C@H]([C@@H](C)CC)NC(=O)[C@@H]2C[C@@H]3CCCC[C@@H]3N2C(=O)[C@@H]2CCCN2C(=O)[C@H](CC(C)C)NC(=O)[C@H](CO)NC(=O)[C@H](CCCNC(=N)N)NC(=O)[C@H](CO)NC1=O) [Example 465: ((N-Me)G)-IC+SRSLP-(Oic)-I-(Pen)+IPD-(Ahx)-OH]
68 nM | 49 nM | [dA]ICSRSLP[Oic]I[Pen]IP[NHCH2(1,3-C6H4)CH2CO]-OH (disulfide 3-11; N-terminus assumed; SMILES CC[C@H](C)[C@H](NC(=O)[C@@H](C)N)C(=O)N[C@H]1CSSC(C)(C)[C@@H](C(=O)N[C@H](C(=O)N2CCC[C@H]2C(=O)NCc2cccc(CC(=O)O)c2)[C@@H](C)CC)NC(=O)[C@H]([C@@H](C)CC)NC(=O)[C@@H]2C[C@@H]3CCCC[C@@H]3N2C(=O)[C@@H]2CCCN2C(=O)[C@H](CC(C)C)NC(=O)[C@H](CO)NC(=O)[C@H](CCCNC(=N)N)NC(=O)[C@H](CO)NC1=O) [Example 478: aIC+SRSLP-(Oic)-I-(Pen)-+IP-(3-Aminomethylphenylacetic acid)-OH]
100 nM | 49 nM | [Sar]ICSRSLP[Oic]I[Pen]IP[PEG6]-OH (disulfide 3-11; N-terminus assumed; SMILES CC[C@H](C)[C@H](NC(=O)CNC)C(=O)N[C@H]1CSSC(C)(C)[C@@H](C(=O)N[C@H](C(=O)N2CCC[C@H]2C(=O)NCCOCCOCCOCCOCCOCCOCCC(=O)O)[C@@H](C)CC)NC(=O)[C@H]([C@@H](C)CC)NC(=O)[C@@H]2C[C@@H]3CCCC[C@@H]3N2C(=O)[C@@H]2CCCN2C(=O)[C@H](CC(C)C)NC(=O)[C@H](CO)NC(=O)[C@H](CCCNC(=N)N)NC(=O)[C@H](CO)NC1=O) [Example 472: ((N-Me)G)-IC+SRSLP-(Oic)-I-(Pen)+IP-(PEG5(22 atoms))-OH]
18 nM | 33 nM | [Sar]ICSRS[tBuAla]PPI[Pen]IP[Phe(3-COOH)]-OH (disulfide 3-11; N-terminus assumed; SMILES CC[C@H](C)[C@H](NC(=O)CNC)C(=O)N[C@H]1CSSC(C)(C)[C@@H](C(=O)N[C@H](C(=O)N2CCC[C@H]2C(=O)N[C@@H](Cc2cccc(C(=O)O)c2)C(=O)O)[C@@H](C)CC)NC(=O)[C@H]([C@@H](C)CC)NC(=O)[C@@H]2CCCN2C(=O)[C@@H]2CCCN2C(=O)[C@H](CC(C)(C)C)NC(=O)[C@H](CO)NC(=O)[C@H](CCCNC(=N)N)NC(=O)[C@H](CO)NC1=O) [Example 482: ((N-Me)G)-IC+SRS-((tBu)A)-PPI-(Pen)+IP-((3-Carboxy)F)-OH]
120 nM | 34 nM | [Orn]ICSRSLP[Oic]I[Pen]IPD-OH (disulfide 3-11; N-terminus assumed; SMILES CC[C@H](C)[C@H](NC(=O)[C@@H](N)CCCN)C(=O)N[C@H]1CSSC(C)(C)[C@@H](C(=O)N[C@H](C(=O)N2CCC[C@H]2C(=O)N[C@@H](CC(=O)O)C(=O)O)[C@@H](C)CC)NC(=O)[C@H]([C@@H](C)CC)NC(=O)[C@@H]2C[C@@H]3CCCC[C@@H]3N2C(=O)[C@@H]2CCCN2C(=O)[C@H](CC(C)C)NC(=O)[C@H](CO)NC(=O)[C@H](CCCNC(=N)N)NC(=O)[C@H](CO)NC1=O) [Example 469: (Orn)-IC+SRSLP-(Oic)-I-(Pen)+IPD-OH]
20 nM | 36 nM | [dβPro]ICSRS[tBuAla]PPI[Pen]IPD-OH (disulfide 3-11) [Example 481: (beta-p)-IC+SRS-((tBu)A)-PPI-(Pen)+IPD-OH]
53 nM | 61 nM | [Sar]ICSRSLP[Oic]I[Pen]IP[4‑Aminomethylphenylacetic acid]-OH (disulfide 3-11; N-terminus assumed; SMILES CC[C@H](C)[C@H](NC(=O)CNC)C(=O)N[C@H]1CSSC(C)(C)[C@@H](C(=O)N[C@H](C(=O)N2CCC[C@H]2C(=O)NCc2ccc(CC(=O)O)cc2)[C@@H](C)CC)NC(=O)[C@H]([C@@H](C)CC)NC(=O)[C@@H]2C[C@@H]3CCCC[C@@H]3N2C(=O)[C@@H]2CCCN2C(=O)[C@H](CC(C)C)NC(=O)[C@H](CO)NC(=O)[C@H](CCCNC(=N)N)NC(=O)[C@H](CO)NC1=O) [Example 476: ((N-Me)G)-IC+SRSLP-(Oic)-I-(Pen)+IP-(4-Aminomethylphenylacetic acid)-OH]
87 nM | 26 nM | [Sar]ICSRSLP[Oic]I[Pen]I[(S)‑4‑Piperazine‑2‑carboxylic acid]-OH (disulfide 3-11) [Example 474: ((N-Me))-GIC+SRSLP-(Oic)-I-(Pen)+I-((S)-4-Piperazine-2-carboxylic acid)-OH]
154 nM | 123 nM | [Sar]ICSRSLP[Oic]I[Pen]IP[NHCH2(1,3-C6H4)CH2CO]-OH (disulfide 3-11; N-terminus assumed; SMILES CC[C@H](C)[C@H](NC(=O)CNC)C(=O)N[C@H]1CSSC(C)(C)[C@@H](C(=O)N[C@H](C(=O)N2CCC[C@H]2C(=O)NCc2cccc(CC(=O)O)c2)[C@@H](C)CC)NC(=O)[C@H]([C@@H](C)CC)NC(=O)[C@@H]2C[C@@H]3CCCC[C@@H]3N2C(=O)[C@@H]2CCCN2C(=O)[C@H](CC(C)C)NC(=O)[C@H](CO)NC(=O)[C@H](CCCNC(=N)N)NC(=O)[C@H](CO)NC1=O) [Example 477: ((N-Me)G)-IC+SRSLP-(Oic)-I-(Pen)+IP-(3-Aminomethylphenylacetic acid)-OH]
17.6 nM | 72 nM | [Sar]ICSRSLP[Oic]I[Pen]IPDD-OH (disulfide 3-11; N-terminus assumed; SMILES CC[C@H](C)[C@H](NC(=O)CNC)C(=O)N[C@H]1CSSC(C)(C)[C@@H](C(=O)N[C@H](C(=O)N2CCC[C@H]2C(=O)N[C@@H](CC(=O)O)C(=O)N[C@@H](CC(=O)O)C(=O)O)[C@@H](C)CC)NC(=O)[C@H]([C@@H](C)CC)NC(=O)[C@@H]2C[C@@H]3CCCC[C@@H]3N2C(=O)[C@@H]2CCCN2C(=O)[C@H](CC(C)C)NC(=O)[C@H](CO)NC(=O)[C@H](CCCNC(=N)N)NC(=O)[C@H](CO)NC1=O) [Example 466: ((N-Me)G)-IC+SRSLP-(Oic)-I-(Pen)+IPDD-OH]

From patent publication US20210246166A1 (Bayer, published 2021)
